Biological target: T1, EpCAM (UniProt P16422 P16422:24-265)
T1 sequence: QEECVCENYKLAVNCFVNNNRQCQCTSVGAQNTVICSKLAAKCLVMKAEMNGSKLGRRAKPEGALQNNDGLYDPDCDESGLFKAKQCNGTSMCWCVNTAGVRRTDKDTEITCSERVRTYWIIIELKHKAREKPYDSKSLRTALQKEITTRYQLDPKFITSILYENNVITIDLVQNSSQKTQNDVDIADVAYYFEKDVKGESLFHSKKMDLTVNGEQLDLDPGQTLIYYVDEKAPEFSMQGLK
Assay: SPR; immobilized biotinylated aptamer, EpCAM analyte; HBS-EP+ buffer
Details: label: biotin via tail
Method: FIG. 5 illustrates results from a binding assay showing the binding affinity of an exemplary aptamer (Aptamer ID BTX176881 (SEQ ID NO: 3)) to the target EpCAM protein at various target concentrations. The aptamer to be tested is fixed to a substrate using a biotin tail and is incubated with various concentrations of target (125, 250 and 500 nM). The test is performed on a surface plasmon resonance machine (SPR). The SPR machine detects association and disassociation of the aptamer and the target. Target is applied until the association and disassociation events are equal, resulting in a plateau of the curve. The equations describing the curve at each concentration can then be used to calculate the KD of the aptamer (see Table 5).
The Biacore 200 control software is programmed with the following conditions: Solution: HBS-EP+ Buffer; Number of cycles: 3; Contact time: 120s; Flow rate: 30 μl/min; Dissociation time: 300s; Solution: Glycine-HCl pH 2.5; Contact time: 120s; Flow rate: 20 μl/min; Stabilization period: 0s. The binding affinities of these aptamers are then measured using the SPR assay above, or an alternate in vitro assay assessing the aptamer for a desired function.

**Q.** Which Kd does the source give for CCCGATTTTGGTACCGCGGGGATCCGCGTCTG (ssDNA) [BTX176881] here?
**A.** 8.4 nM
